# Experiment: yeast display, Sf9 membrane polyspecificity reagent, FACS + sequencing; frameworks hold sequencing errors
# In short: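 Sorting gates, low and high (top ~1%), were placed on anti-HA fluorescence to track expression and on streptavidin fluorescence to track reagent binding. A clone's polyreactivity label is taken from the gate it came out of. The reagent was 10% biotinylated, detergent-solubilized Sf9 membrane, applied for 1 hour at 4 °C to galactose-induced yeast display cells.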
row,Sequence,polyreactivity (PSR sort gate)
1,QVQLVESGGGLVQAGGSLRLSCAASGRIFAFNVMGWYRQAPGKEREMVAAISTRDGSTYYADSVKGRFTISRDNAKNTVYLQMNSLIPEDTAVYYCNAVVRYYDWGYWDYDYWGQGTQVTVSS,low polyreactivity
2,QVQLVESGGGLVQAGGSLRLSCAASGRIFAFYAMGWSRPAPGKERELVAAITSGGSTKYADSVKGRFTISRDNAKNTVYLQMNSLKPEDTAVYYCAAQYRYQRYSYAMEYWGQCTQVTVSS,high polyreactivity
3,QVQLVESGGGLVQAGGSLRLSCAASGRIFAFYAMGWYRQAPGKERELVAAITWSGGSTYYADSVKGRFTISRDNAKNTVYLQMNSLKPEDTAVYYCAARYRHYFVRGGYWGQGTQVTVSS,high polyreactivity
4,QVQLVESGGGLVQAGGSLRLSCAASGRIFAFYARGWYRQAPGKERELVAAITSGGSTKYADSVKGRFTISRDNAKNTVYLQMNSLKPEDTAVYYCAAQYRYQRYSYAMEYWGQGTQVTVSS,high polyreactivity
5,QVQLVESGGGLVQAGGSLRLSCAASGRIFAGYAMGWYRQAPGKERELVAAISNARRTNYADSVKGRFTISRDNAKNNVYLHMNSLKPEDTAVYYCAASRYGRKFSLYDYYYWGQGTQVTVSS,high polyreactivity
6,QVQLVESGGGLVQAGGSLRLSCAASGRIFAGYAMGWYRQAPGKERELVAAITTGGSTHYADSVKGRFTISRDNAKNTVYLQMNSLKPEDTAVYYCNAKVEFWESWGWLLDDDYWGQGTQVTVSS,low polyreactivity
7,QVQLVESGGGLVQAGGSLRLSCAASGRIFAHYTMGWYRQAPGKERELVAAISIRGGRTNYTDSVKGRFTISRDNAKNTVYLQMNSLKPEDTAVYYCNARGARYYWYQLGHDYWGQGTQVTVSS,high polyreactivity
8,QVQLVESGGGLVQAGGSLRLSCAASGRIFAKYAMGWYRQAPGKERELVAAISWGGGSTYYADSVKGRFTISRDNAKNTVYLQMNSLKPEDTAVYYCARRFKYGSTAWRFYYWGQGTQVTVSS,high polyreactivity
9,QVQLVESGGGLVQAGGSLRLSCAASGRIFALYAMGWYRQAPGKERELVAAITWRGGRTRYADSVKGRFTISRDNAKNTVYLQMNSLKPEDTAVYYCNKRLFASRYDYWGQGTQVTVSS,high polyreactivity
10,QVQLVESGGGLVQAGGSLRLSCAASGRIFALYAMGWYRQAPGKERELVASITGGTSTNYADSVKGRFTISRDNAKNTVYLQMNSLKPEDTEVYYCAARGYTTGTRNRRYNYWGQGTQVTVSS,high polyreactivity
11,QVQLVESGGGLVQAGGSLRLSCAASGRIFANNAMGWYRQAPGKERELVAAISWRSGGTYYADSVKGRFTISRDNAKNTVYLQMNSLKPEDTAVYYCARRSPHHGRDYWGQGTQVTVSS,low polyreactivity
12,QVQLVESGGGLVQAGGSLRLSCAASGRIFAPYAMGWYRQAPGKERELVAAIRISGDSTYYADSVKGRFTISRDNAKNTVYLQMNSLKPEDTAVYYCAAEYYILHWFGYAGYPAYNYWGQGTQVTVSS,high polyreactivity
13,QVQLVESGGGLVQAGGSLRLSCAASGRIFAPYAMGWYTQAPGKERELVAAISFSGGSTHYADSVKGRFTISRDNAKNTVYLQMNSLKPEDTAVYYCAAGWRSRLYRFGYWGQGTQVTVSS,high polyreactivity
14,QVQLVESGGGLVQAGGSLRLSCAASGRIFAQYAMGWYRQAPGKERELVADISSGVRTNADSVKGRFTISRDNAKNSVYLQMNSLKPEDTAVSYCNAYYIIFTRNDYWGQGTQVTVSS,low polyreactivity
15,QVQLVESGGGLVQAGGSLRLSCAASGRIFARKAMGRYRQAPGKEREWVATIRVGGGSTYYADSVKGRFTISRDNAKNTVYLQMNSLKPEDTAVYYFAVRQLYSYPGDRRGYDWGQGTQVTVSS,low polyreactivity
16,QVQLVESGGGLVQAGGSLRLSCAASGRIFARNAMGWYRQAPGKERELVADITSTGSTNYADSVKGRFTISRDNAMNTVYLQMNSLKPEDTAVYYCAADYYTGYVWEDYYWGQGTQVTVSS,low polyreactivity
17,QVQLVESGGGLVQAGGSLRLSCAASGRIFARNAMGWYRQAPGKESELVAAITSSGSTYYADSVKGRFTISRDNAKNSVYLQMNSLKPEDTAVYYCAADGHAYRSNFWGQGTQVTVSS,low polyreactivity
18,QVQLVESGGGLVQAGGSLRLSCAASGRIFARNTMGWYRQAPGKERELVAAISWGGGRTYYADSVKGRFTISRDNAKNTVYLQMNSLKPEDTAVYYCAAETLQIPRGEYWGQGTQVNVSS,low polyreactivity
19,QVQLVESGGGLVQAGGSLRLSCAASGRIFARNTMGWYRQAPGKERELVAAISWGGGRTYYADSVKGRFTISRDNAKNTVYLQMNSLKPEDTAVYYCAAETLQIPRGEYWGQGTQVTVSS,low polyreactivity
20,QVQLVESGGGLVQAGGSLRLSCAASGRIFARYAMGWYRQAPGKERELVAAIRTSGGITYYADSVKWRFTISRDNAKNTVYLQMNSLKPEDTEVYYCAADFYSYSSVKYDYWGQGTQVTVSS,low polyreactivity
21,QVQLVESGGGLVQAGGSLRLSCAASGRIFARYAMGWYRQAPGKERELVAAISRGGSTKYADSVKGRFTISRDNAKNTVYLQMNSLKPEDTAVYYCAGQLWGSPYGAYYAGDYWGQGTQVTVSS,low polyreactivity

row,Sequence,polyreactivity (PSR sort gate)
1,QVQLVESGGGLVQAGGSLRLSCAASGRIFARYAMGWYRQAPGKERELVAAITGGGRTNYADSVKGRFTISRDNAKNTVYLQMNSLKPEDTAVYYCAADTGYQNGKGLGYQNFGGYYWGQGTQVTVSS,high polyreactivity
2,QVQLVESGGGLVQAGGSLRLSCAASGRIFARYTMGWYRQAPGKEREFVAGIRSSGGRTYYADSVKGRFTISRDNAKNTVYLQMNSLKPEDTALYYCNAGGSWYFARYDYWGQGTQVTVSS,low polyreactivity
3,QVQLVESGGGLVQAGGSLRLSCAASGRIFATNAMGWYRQAPGKEMELVATITRSAGRTYYADSVKGRFTISRDNAKNTVYLQMNSLKPEDTAVYYCAASYWDTEPGYREYDYWGQGTQVTVSS,low polyreactivity
4,QVQLVESGGGLVQAGGSLRLSCAASGRIFATNAMGWYRQAPGKERELVAIITRSAGRTYYADSVKGRFTISRDKAKNTVYLQMNSLKPEDTAVYYCNTVPRPFDRYGYWGQGTQVTVSS,low polyreactivity
5,QVQLVESGGGLVQAGGSLRLSCAASGRIFATYAMGWYRQAPGKERELVAAISDSGGRTYYADSVKGRFTISRDNAKNTVYLQMNSLKPADTALYYCAAKNGDRYARGYWGQATQVTVSS,high polyreactivity
6,QVQLVESGGGLVQAGGSLRLSCAASGRIFAVNAMGWYRQAPGKERELVAAINGGGSTNYADSVKGRFTISRDNAKNTVYFQMNSLKPEDTAVYYCAADVGWRSQTRGYYWGQGTQVTVSS,high polyreactivity
7,QVQLVESGGGLVQAGGSLRLSCAASGRIFAWYVMGWYRQAPRKEREFVAAIRWRSGSTHYADSVKGRFTISRDNAKNTVYLQMNSLKPEDTAVYYCAVDSRTYNGDYWGQGTQVTVSS,high polyreactivity
8,QVQLVESGGGLVQAGGSLRLSCAASGRIFAYNTMGWYRQAPGKERELVAGITSGGSTNYADSVKGRFTISRDNAKNTVYLQMNSLQPEDTAVYYCAAVGRWGVTGSHHDAYDYWGQGTQVTVSS,high polyreactivity
9,QVQLVESGGGLVQAGGSLRLSCAASGRIFAYYAKGWYRQAPGKERELVAAISRSGVSTYYADSVKGRFTISRDNAKNTVYLQMNSLKPEDTAVYYCAARWRSGFTSGDYWGQGTQVTVSS,low polyreactivity
10,QVQLVESGGGLVQAGGSLRLSCAASGRIFCSYTMGWYRQAPGKERELVAAISWRGGSTYYADSVKGRFTISRDNAKNTVYLQMNSLKPEDTAVYYCAADSRSPPGDYWGQGTQVTVSS,low polyreactivity
11,QVQLVESGGGLVQAGGSLRLSCAASGRIFCVNAMGWYRQAPGKERELVAAINVSGGITYYADSVKGRFTISRDNAKNTVYLQMKSLKPEDTAVYYCAAVHWTWYTYYGPDYDYWGQGTQVTVSS,low polyreactivity
12,QVQLVESGGGLVQAGGSLRLSCAASGRIFDAYAMGWYRQAPGKERELLAAITQSGGSTFYADSVKGRFTISRDNAKNTVYLQMNSLKPEDTAVYYCAKDKFWFRVDGHYRMDYWGQGTQVTVSS,low polyreactivity
13,QVQLVESGGGLVQAGGSLRLSCAASGRIFDCYAMGWDRQAPGKERELVAAIRASGGRTYYADSVKGRFTISRDNAKNTVYLQMNSLKPEDTAVYYCAADSVKYGGDYGGQGTQVTVSS,high polyreactivity
14,QVQLVESGGGLVQAGGSLRLSCAASGRIFDDNTMGWSRQAPGKERELVAAISSGTSTYYADSVKGRFTISRDNAKNTVYLQMNSLKPEDTAVYYCAAVIKWTKDDYWGQGTQVTVSS,high polyreactivity
15,QVQLVESGGGLVQAGGSLRLSCAASGRIFDDYAMGWYRPAPGKERELVAAISSSGGSTYYADSLKGRFTISRDNAKNTVYLQINSLKPEDTAVYFCAASSFRSYYSGKYDYWGQGTQVTVSS,high polyreactivity
16,QVQLVESGGGLVQAGGSLRLSCAASGRIFDENAMGWYRQAPGKERELVATISSSGVSTSYADSVKGRFTISRDNAKNTVYLQMNSLKPEDTAVYYCNAGYRRRYKFDYWGQGTQVTVSS,low polyreactivity
17,QVQLVESGGGLVQAGGSLRLSCAASGRIFDENAMGWYRQAPGKERELVATISSSGVSTSYADSVKGRFTISRDNAKNTVYLQMNSLKPEDTAVYYCNAGYRRRYKFVYWGQGTQVTVSS,low polyreactivity
18,QVQLVESGGGLVQAGGSLRLSCAASGRIFDGNAMGWYRQAPGKERELVAAISWTGGSTYYADSVKGRFTISRDNAKNTVYLQMNSLKPEDTAVYYCAADSGWWLDQWSWYDYWGQGTQVTVSS,low polyreactivity
19,QVQLVESGGGLVQAGGSLRLSCAASGRIFDGNTMGWYRQAPGKERELVAAISGGGSTDYADSVKGRFTISRDNAKNTVYLQMNSLKPEDTAVYYCAATTGPVPLKGDYWGQGTQVTVSS,low polyreactivity
20,QVQLVESGGGLVQAGGSLRLSCAASGRIFDGYDMGGYRQAPGQEREWVAAITSVGSTNYADSVKGRFTISRDNAKNTVYLQMNSLKPDDTAVYYCAAVLYVFYDDYGYWEYFSQYDYWGQGTQVTVSS,low polyreactivity

# Source: the nanobody polyreactivity screen of Harvey et al. (2022)
